The record followed here is PMC8354235 (Journal of Virology, 2021).

“And” between values parts separate entries of the source, which are not always exact repeats. Equal values may be shown once.

For assay [1], the target named is T1, histidine-tagged soluble extracellular domain of human transferrin receptor 1 (sTfR1) from BHK cells (human, UniProt P02786).
T1 construct: also called hTfR1; sTfR1-His
Kind of assay: ELISA. As to conditions: both partners purified.

Assay [2] concerns the target T1, histidine-tagged soluble extracellular …. Kind of assay: BLI. Conditions: both partners purified.

T1 sequence (P02786 89-760): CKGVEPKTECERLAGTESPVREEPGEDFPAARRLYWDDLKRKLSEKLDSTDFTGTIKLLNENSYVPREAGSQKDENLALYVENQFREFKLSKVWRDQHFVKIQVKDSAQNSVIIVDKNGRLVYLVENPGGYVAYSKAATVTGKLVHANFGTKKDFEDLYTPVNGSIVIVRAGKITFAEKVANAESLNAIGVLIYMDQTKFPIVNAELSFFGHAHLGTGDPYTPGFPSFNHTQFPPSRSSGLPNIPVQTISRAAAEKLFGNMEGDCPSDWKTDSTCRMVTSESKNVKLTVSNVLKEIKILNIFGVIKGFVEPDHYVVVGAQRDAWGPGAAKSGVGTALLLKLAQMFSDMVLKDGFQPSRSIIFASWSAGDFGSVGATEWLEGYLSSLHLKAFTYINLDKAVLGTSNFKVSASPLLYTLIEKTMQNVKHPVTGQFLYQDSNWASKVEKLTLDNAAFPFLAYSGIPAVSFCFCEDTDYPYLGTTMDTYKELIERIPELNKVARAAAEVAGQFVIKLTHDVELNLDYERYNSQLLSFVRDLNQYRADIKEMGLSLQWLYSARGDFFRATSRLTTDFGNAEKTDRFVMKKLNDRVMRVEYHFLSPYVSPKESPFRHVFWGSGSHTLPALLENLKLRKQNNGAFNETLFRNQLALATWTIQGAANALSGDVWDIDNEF

B1: OKT9 antigen binding fragment (OKT9-Fab) (Fab, V domains shown)
VH: QIQLQQSGPELVKPGTSMNISCKASGYTFTNYYMHWVRQRPGQGLEWIGWIYPGDGNTHYNEKFKGKTTLTADTSSITAYMLLSSLTSEDSAVYFCARDNSGYVGFPYWGQGTLVTVSA
VL: DIVMTQSPSSLTVTAGERVTMSCKSSQSLFNSANQENYLTWYQQRPGQPPKLLIYWASTRDSGVPDRFTGSGSGTDFTLTISSVQAEDLAVYYCQNDYSYPLTFGAGTKLELK
notes: also called Fab OKT9; OKT9 variable region
As to B1, the EC50 in assay [1] is 3.69 nM and ~3.66 nM. For the same molecule, in assay [2], the Kd is 4.9 nM and 4.78 nM and 4.76 nM and 4.82 nM; the koff is 0.0012 s⁻¹ and 0.00125 s⁻¹ and 0.00114 s⁻¹.

B2: murine monoclonal antibody OKT9 (full-length IgG1) (antibody, V domains shown)
VH: QIQLQQSGPELVKPGTSMNISCKASGYTFTNYYMHWVRQRPGQGLEWIGWIYPGDGNTHYNEKFKGKTTLTADTSSITAYMLLSSLTSEDSAVYFCARDNSGYVGFPYWGQGTLVTVSA
VL: DIVMTQSPSSLTVTAGERVTMSCKSSQSLFNSANQENYLTWYQQRPGQPPKLLIYWASTRDSGVPDRFTGSGSGTDFTLTISSVQAEDLAVYYCQNDYSYPLTFGAGTKLELK
notes: also called full-length OKT9
Turning to B2, it took 0.411 nM to reach a half-maximal effect in assay [1] (EC50).

The EC50 is the concentration that produces a half-maximal response. What is called Kd is a measure of binding affinity in units of concentration. Higher therefore signals weaker binding. Broadly, the koff is the rate constant with which the complex falls apart. Lower therefore signals slow dissociation.
